Assay results published in US20110223168A1 (published 2011).
Substitutions are numbered along the chain they refer to. One block for each binder: values may come before it.

Assays:
human TNFα [1] = target: T1, human TNFα (human, UniProt P01375 77-233); experiment: TNF receptor assay; fermenter-expressed, cation exchange FPLC pure dimer
T1 construct: Coated on plates, coupled to a CM5 chip, or added in solution (10 ng/ml) in the TNF receptor assay; the assay paragraphs often print only 'TNF'; also called TNF alpha; TAR1

human TNFα [2] = target: T1, human TNFα; experiment: TNF receptor assay: inhibition of TNF binding to TNFR1-Fc (ELISA)
hen egg lysozyme (HEL) [3] = target: T2, hen egg lysozyme (HEL) (hen, UniProt P00698 19-147); experiment: selection from dAb libraries
T2 construct: also called hen egg white lysozyme

hen egg lysozyme (HEL) [4] = target: T2, hen egg lysozyme (HEL); experiment: ELISA on HEL coated at 3 mg/ml, detection with 9e10 (anti-myc) and anti mouse IgG-HRP
human p55 TNF receptor = target: T3, human p55 TNF receptor (human, UniProt P19438 30-211, limits assumed); experiment: selection from dAb libraries
T3 construct: Coupled to a CM5 chip or coated on immunotubes/plates; also called TNF receptor 1; TNFα receptor
T3 sequence (looked up): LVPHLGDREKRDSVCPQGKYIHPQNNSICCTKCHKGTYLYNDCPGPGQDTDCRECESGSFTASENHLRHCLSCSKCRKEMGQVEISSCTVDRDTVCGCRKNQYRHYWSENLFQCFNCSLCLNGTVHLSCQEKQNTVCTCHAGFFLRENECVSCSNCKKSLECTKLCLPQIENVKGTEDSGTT

[5] = target: bovine serum albumin (BSA) (bovine, UniProt P02769 25-607); experiment: antigen ELISA
Procedure: (§1) Binding activity of dimeric recombinant proteins was compared to monomer by Protein A/L ELISA or by antigen ELISA. Briefly, a 96 well plate is coated with antigen or Protein A/L overnight at 4° C. The plate washed with 0.05% Tween-PBS, blocked for 2 hrs with 2% Tween-PBS. The sample is added to the plate incubated for 1 hr at room temperature. The plate is washed and incubated with the secondary reagent for 1 hr at room temperature. The plate is washed and developed with TMB substrate. Protein A/L-HRP or India-HRP was used as a secondary reagent.

human TNFα [6] = target: T1, human TNFα; experiment: TNF receptor assay: inhibition of TNF binding to TNFR1-Fc (ELISA); remark: listed apart in the source
human TNFα [7] = target: T1, human TNFα; experiment: as above; remark: listed apart in the source
human TNFα [8] = target: T1, human TNFα; experiment: not stated; printed under 'Equilibrium dissocation constant (Kd = Koff/Kon)' in the data summary
human TNFα [9] = target: T1, human TNFα; experiment: antigen ELISA
Procedure: as §1

T1 sequence (P01375 77-233 limits assumed): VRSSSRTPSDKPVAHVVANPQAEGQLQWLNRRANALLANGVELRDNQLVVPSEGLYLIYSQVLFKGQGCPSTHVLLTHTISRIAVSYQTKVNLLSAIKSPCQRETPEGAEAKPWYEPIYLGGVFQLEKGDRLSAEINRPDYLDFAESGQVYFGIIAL
Chain of bovine serum albumin (BSA) (P02769 25-607 limits assumed): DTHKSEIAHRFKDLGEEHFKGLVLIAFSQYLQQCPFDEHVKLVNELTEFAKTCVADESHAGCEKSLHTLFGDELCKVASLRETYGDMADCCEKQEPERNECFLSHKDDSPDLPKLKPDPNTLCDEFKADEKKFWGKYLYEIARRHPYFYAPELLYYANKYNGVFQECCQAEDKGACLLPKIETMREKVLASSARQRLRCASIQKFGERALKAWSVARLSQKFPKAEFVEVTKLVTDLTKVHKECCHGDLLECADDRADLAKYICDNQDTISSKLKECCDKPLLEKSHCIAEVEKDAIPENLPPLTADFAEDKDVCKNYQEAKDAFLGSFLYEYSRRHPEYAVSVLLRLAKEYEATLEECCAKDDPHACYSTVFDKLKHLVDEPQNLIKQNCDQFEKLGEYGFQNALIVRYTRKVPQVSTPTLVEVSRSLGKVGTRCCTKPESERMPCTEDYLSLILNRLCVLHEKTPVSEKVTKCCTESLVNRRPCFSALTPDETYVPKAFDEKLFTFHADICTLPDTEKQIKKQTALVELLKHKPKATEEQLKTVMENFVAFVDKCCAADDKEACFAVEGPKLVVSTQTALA
T2 sequence (P00698 19-147): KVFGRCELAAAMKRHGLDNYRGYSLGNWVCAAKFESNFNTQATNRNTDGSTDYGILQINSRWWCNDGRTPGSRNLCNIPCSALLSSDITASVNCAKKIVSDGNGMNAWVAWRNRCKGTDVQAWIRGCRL

- IC50 (human TNFα [1]): 8 nM
- IC50 (human TNFα [2]): 2 to 5 nM
B1: TAR1-5-19d4 (other)
chain: DIQMTQSPSSLSASVGDRVTITCRASQSIDSYLHWYQQKPGKAPKLLIYSASELQSGVPSRFSGSGSGTDFTLTISSLQPEDFATYYCQQVVWRPFTFGQGTKVEIKRGGGGSGGGGSGGGGSGGGGSGGGGSDIQMTQSPSSLSASVGDRVTITCRASQSVKEFLWWYQQKPGKAPKLLIYMASNLQSGVPSRFSGSGSGTDFTLTISSLQPEDFATYYCQQKFKLPRTFGQGTKVEIKR
notes: also called TAR1-5-19 dimer 4

- binding result (hen egg lysozyme (HEL) [3]): binds
B2: HEL4 (other)
VH: EVQLLESGGGLVQPGGSLRLSCAASGFRISDEDMGWVRQAPGKGLEWVSSIYGPSGSTYYADSVKGRFTISRDNSKNTLYLQMNSLRAEDTAVYYCASALEPLSEPLGFWGQGTLVTVSS
notes: VH dAb; also called HEL4 VH dAb; anti-hen egg white lysozyme dAb

- ELISA signal (background) (hen egg lysozyme (HEL) [4]): 0.069
- binding result (human p55 TNF receptor): binds
B3: TAR2h-5 (other)
VH: EVQLLESGGGLVQPGGSLRLSCAASGFTFDLYNMFWVRQAPGKGLEWVSFISQTGRLTWYADSVKGRFTISRDNSKNTLYLQMNSLRAEDTAVYYCAKTLEDFDYWGQGTLVTVSS
notes: VH dAb against TNF receptor 1; also called TAR2-5; TAR2h-5 VH dAb

- binding result [5]: no binding
B4: dAb3 monomer (other)
VL: DIQMTQSPSSLSASVGDRVTITCRASQSVKEFLWWYQQKPGKAPKLLIYMASNLQSGVPSRFSGSGSGTDFTLTISSLQPEDFATYYCQQKFKLPRTFGQGTKVEIKR
notes: Vκ dAb monomer; also called partner dAb in TAR1-5d4

- IC50 (human TNFα [6]): 0.3 nM
B5: TAR1-5-19CYS trimer (TMEA) (other)
VL: DIQMTQSPSSLSASVGDRVTITCRASQSIDSYLHWYQQKPGKAPKLLIYSASELQSGVPSRFSGSGSGTDFTLTISSLQPEDFATYYCQQVVWRPFTFGQGTKVEIKRC
modifications: C-terminal Cys coupled to TMEA (Tris[2-maleimidoethyl]amine)
notes: also called TAR1-5-19 homotrimer; trimeric TAR1-5-19CYS

- IC50 (human TNFα [7]): 30 nM
- Kd (human TNFα [8]): 30 nM
B6: TAR1-5-19 monomer (other)
VL: DIQMTQSPSSLSASVGDRVTITCRASQSIDSYLHWYQQKPGKAPKLLIYSASELQSGVPSRFSGSGSGTDFTLTISSLQPEDFATYYCQQVVWRPFTFGQGTKVEIKR
notes: also called TAR1-5-19 dAb

- binding result (human TNFα [9]): binds
- binding result [5]: no binding
B7: dAb1 monomer (other)
VL: B6 VL with D30Y, S31D, Y32A, H34E, S50T, E53R, V92M, W93Q, F96V
notes: Vκ dAb monomer; also called partner dAb in TAR1-5d1, d5, d6
